# Patent publication US20130289253A1
# Where “and” joins values, the source holds several entries; their conditions need not be identical. Equal values may be shown once. Read-outs that look alike come from different tables or passages of the source.
# Assays:
# [1] = target: HA peptide-stimulated PBMC (antigen-specific CD4+ T cells)
# [2] = target: control (Fig. 48)
# [3] = target: HA peptide-stimulated PBMC (antigen-specific CD4+ T cells); remark: listed apart in the source
# [4] = target: HA peptide-stimulated PBMC (antigen-specific CD4+ T cells); remark: listed apart in the source
# [5] = target: control (Fig. 48); test: flow cytometry, 4 °C; control
# [6] = target: control (Fig. 48); test: flow cytometry, RT, 7 µg/ml; control
# [7] = target: HA peptide-stimulated PBMC (antigen-specific CD4+ T cells); test: flow cytometry, 4 °C; HA306-318 stim
# [8] = target: control (Fig. 48); test: flow cytometry, RT, 3.5 µg/ml; control
# [9] = target: control (Fig. 48); test: flow cytometry, RT, 1.75 µg/ml; control
# [10] = target: HA peptide-stimulated PBMC (antigen-specific CD4+ T cells); test: flow cytometry, RT, 7 µg/ml; HA306-318 stim
# [11] = target: HA peptide-stimulated PBMC (antigen-specific CD4+ T cells); test: flow cytometry, RT, 3.5 µg/ml; HA306-318 stim
# [12] = target: HA peptide-stimulated PBMC (antigen-specific CD4+ T cells); test: flow cytometry, RT, 1.75 µg/ml; HA306-318 stim
# [13] = target: HA peptide-stimulated PBMC (antigen-specific CD4+ T cells); test: flow cytometry, RT 1 h, 10 µg/ml; HA306-318 stim
# [14] = target: HA peptide-stimulated PBMC (antigen-specific CD4+ T cells); test: flow cytometry, 37 °C 1 h, 10 µg/ml; HA306-318 stim
# [15] = target: HA peptide-stimulated PBMC (antigen-specific CD4+ T cells); test: flow cytometry, staining at 4°C 1 h, 28 µg/ml; 0 min, no imidazole
# [16] = target: HA peptide-stimulated PBMC (antigen-specific CD4+ T cells); test: flow cytometry, staining at 4°C 1 h, 28 µg/ml; 1 min, no imidazole
# [17] = target: HA peptide-stimulated PBMC (antigen-specific CD4+ T cells); test: flow cytometry, staining at 4°C 1 h, 28 µg/ml; 3 min, no imidazole
# [18] = target: HA peptide-stimulated PBMC (antigen-specific CD4+ T cells); test: flow cytometry, staining at 4°C 1 h, 28 µg/ml; 5 min, no imidazole
# [19] = target: HA peptide-stimulated PBMC (antigen-specific CD4+ T cells); test: flow cytometry, staining at 4°C 1 h, 28 µg/ml; 10 min, no imidazole
# [20] = target: control (Fig. 48); test: flow cytometry, RT; control; conventional BSP multimer, concentration not given
substance,measurement,setting,value
DR4 2×His DTB-HA306-318 complexes (DTB-streptactin purified monomers) (from UniProt P01903 26-216) (peptide-MHC),% of cells in Q2 (multimer+ CD4+),[1],24.9% and 9.81%
same,% of cells in Q2 (multimer+ CD4+),[2],0.384% and 0.618%
same,% of cells in Q2 (multimer+ CD4+),[3],12.3%
same,% of cells in Q2 (multimer+ CD4+),[4],4.52%
same,% of cells in Q2 (multimer+ CD4+),[5],0.355% and 0.561%
same,% of cells in Q2 (multimer+ CD4+),[6],0.11%
same,% of cells in Q2 (multimer+ CD4+),[7],2.52% and 2.3%
same,% of cells in Q2 (multimer+ CD4+),[8],0.222%
same,% of cells in Q2 (multimer+ CD4+),[9],0.142%
same,% of cells in Q2 (multimer+ CD4+),[10],6.15%
same,% of cells in Q2 (multimer+ CD4+),[11],7.94%
same,% of cells in Q2 (multimer+ CD4+),[12],7.23%
same,% of cells in Q2 (multimer+ CD4+),[13],5.35% and 3.3%
same,% of cells in Q2 (multimer+ CD4+),[14],6.23%
same,% of cells in Q2 (multimer+ CD4+),[15],4.5%
same,% of cells in Q2 (multimer+ CD4+),[16],5.3%
same,% of cells in Q2 (multimer+ CD4+),[17],4.68%
same,% of cells in Q2 (multimer+ CD4+),[18],4.59%
same,% of cells in Q2 (multimer+ CD4+),[19],4.35%
same,% of cells in Q2 (multimer+ CD4+),[20],0.121%
